Blank lines part the entries; values can stand above or below the binder they belong to.
Assays:
[1] = biological target: T1, Notch1-Gal4 chimeric receptor (hN1 ECD-Gal4 ICD) on CHO-K1 cells (human, UniProt P46531 19-1735); test: fluorescence microscopy of JFX650-labelled probody on CHO-K1 cells expressing Notch1-Gal4
T1 construct: extracellular domain; H2B-mTurq2 marker; also called Notch1-Ga4; NOTCH1 ECD-GAL4 ICD; not shown: transmembrane segment and Gal4 intracellular domain
Source text: FIGS. 30A and 30B present data showing anti-NRR1-based probodies can bind Notch1 receptors following deletion of the S1 loop (ΔS1) containing the NRR's furin cleavage site. The probodies used represent the anti-NRR1 scFv fused to with a soluble mutant NRR (V1667D) from Notch1, linked together via a TEV protease substrate sequence. The probodies were also fused with a HaloTag domain, which remains attached to the anti-NRR scFv following TEV cleavage. CHO-K1 cells expressing a Notch1-Gal4 chimeric receptor were treated with intact (uncleaved) and TEV protease-cleaved versions of the indicated probodies. The HaloTag domains were conjugated with a JFX650 dye to permit visualization of their binding to cell surface Notch1-Ga4 receptors. (FIG. 30A) Fluorescently labeled probody containing the S1 cleavage loop (Probody^V1667D-JF650) binds Notch1-Gal4 only in its TEV protease-cleaved state. (FIG. 30B) Fluorescently labeled probody containing the S1 cleavage loop deletion (Probody^V1667D(ΔS1)-JF650) similarly binds Notch1-Gal4 in a manner that is dependent on TEV protease cleavage. Insets represent emissions from a constitutively expressed H2B-mTurq2 expressed by the analyzed cells.

[2] = biological target: T2, mouse Notch1 NRR with the T-ALL mutation A1702P, in the receptor design (mouse, UniProt Q01705 1427-1752); test: anti-HA immunoblot (aHA-HRP) of cell lysate and conditioned media of HEK293-FT cells expressing the receptor, after TEVp cleavage of the scFv-NRR linker
T2 construct: also called A1691P in mouse Notch1
T2 sequence (Q01705 1427-1752 A1691P limits assumed): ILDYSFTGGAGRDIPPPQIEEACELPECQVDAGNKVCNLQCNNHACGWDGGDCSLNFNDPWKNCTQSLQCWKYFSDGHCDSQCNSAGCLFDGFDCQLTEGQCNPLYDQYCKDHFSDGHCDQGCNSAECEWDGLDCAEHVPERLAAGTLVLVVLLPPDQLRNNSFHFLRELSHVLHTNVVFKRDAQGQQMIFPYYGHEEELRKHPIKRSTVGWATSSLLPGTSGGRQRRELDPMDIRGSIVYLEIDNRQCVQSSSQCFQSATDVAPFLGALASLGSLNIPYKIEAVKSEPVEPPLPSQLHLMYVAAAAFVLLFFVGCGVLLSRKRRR
Description: (§1) HEK293-FT cells were transfected with pcDNA3-based plasmids encoding the indicated receptor with TEVs substrate linker and N-terminal HA tag. (FIG. 11A) cell lysates and conditioned anti-HA immunoblots after 3 hours of TEVp incubation, overwise indicated. FL; full-length receptor, NTF; N-terminal fragment, Ab; ‘A-2’ variant of the anti-NRR1 scFv. (FIG. 11B) Inventors further evaluated the efficiency of TEVs cleavage by comparing an anti-HA blot (which stains all copies of the receptor, including those in the secretory pathway) to a streptavidin blot probing for surface-bound receptor copies by labelling receptors with a cell-impermeant halo-ligand-biotin conjugate. […] Immunoblot of cell lysates and conditioned media of HEK293-FT expressing the ‘V1677D’ design by transient transfection. Cells were stained with cell-impermeant halo-biotin prior to TEVp addition. Cell lysates and conditioned media were collected for immunoblot analysis after 3 hours. Colored triangle markers denote FL (top arrow of top blot), NTF (middle arrow of top blot; top arrow of bottom blot) and cleaved NTF (bottom arrows of both blots) species.
(§2) Inventors then evaluated whether these receptors have different TEVs cleavage efficiencies and anti-NRR1 scFv dissociation kinetics. They immunoblotted for the anti-NRR1 scFv mask in cell lysates and conditioned media in cells expressing the non-mutated WT, V1677D, and A1702P NRR receptors in the absence or addition of exogenous TEVp. Inventors than chose to analyze the V1677D and A1702P mutations since they were the designs with the highest and lowest protease-induced reporter activation, respectively.

[3] = biological target: T3, mouse Notch1 NRR with V1677D, in the ProNotch receptor (mouse, UniProt Q01705 1427-1752); test: as above
T3 construct: Domain of a synthetic receptor on cells; also called NRR(V1677D); Mouse NRR1-V1677D
T3 sequence (Q01705 1427-1752 V1666D limits assumed): as the sequence (Q01705 1427-1752 A1691P limits assumed) above, with V240D, P265A counted along it
Description: as §1, §2

[4] = biological target: T4, mouse Notch1 NRR, non-mutated (WT), in the control receptor HA-Halo-antiNRR-TEVs-NRR-GAL4VP64 (mouse, UniProt Q01705 1427-1752); test: as above
T4 construct: Domain of a synthetic receptor on cells; also called non-mutated NRR control; Mouse NRR1-WT
T4 sequence (Q01705 1427-1752 limits assumed, change not shown): as the sequence (Q01705 1427-1752 A1691P limits assumed) above, with P265A counted along it
Description: as §1, §2

[5] = biological target: T5, human Notch1-derived receptor overexpressed on CHO-K1 cells (human, UniProt P46531 19-1762, limits assumed); test: fluorescence microscopy of JFX650-labelled probody on CHO-K1 cells overexpressing a human Notch1-derived receptor
T5 construct: Cells also express H2B-mTurq; also called Notch1 receptors
T5 sequence (P46531 19-1762 limits assumed): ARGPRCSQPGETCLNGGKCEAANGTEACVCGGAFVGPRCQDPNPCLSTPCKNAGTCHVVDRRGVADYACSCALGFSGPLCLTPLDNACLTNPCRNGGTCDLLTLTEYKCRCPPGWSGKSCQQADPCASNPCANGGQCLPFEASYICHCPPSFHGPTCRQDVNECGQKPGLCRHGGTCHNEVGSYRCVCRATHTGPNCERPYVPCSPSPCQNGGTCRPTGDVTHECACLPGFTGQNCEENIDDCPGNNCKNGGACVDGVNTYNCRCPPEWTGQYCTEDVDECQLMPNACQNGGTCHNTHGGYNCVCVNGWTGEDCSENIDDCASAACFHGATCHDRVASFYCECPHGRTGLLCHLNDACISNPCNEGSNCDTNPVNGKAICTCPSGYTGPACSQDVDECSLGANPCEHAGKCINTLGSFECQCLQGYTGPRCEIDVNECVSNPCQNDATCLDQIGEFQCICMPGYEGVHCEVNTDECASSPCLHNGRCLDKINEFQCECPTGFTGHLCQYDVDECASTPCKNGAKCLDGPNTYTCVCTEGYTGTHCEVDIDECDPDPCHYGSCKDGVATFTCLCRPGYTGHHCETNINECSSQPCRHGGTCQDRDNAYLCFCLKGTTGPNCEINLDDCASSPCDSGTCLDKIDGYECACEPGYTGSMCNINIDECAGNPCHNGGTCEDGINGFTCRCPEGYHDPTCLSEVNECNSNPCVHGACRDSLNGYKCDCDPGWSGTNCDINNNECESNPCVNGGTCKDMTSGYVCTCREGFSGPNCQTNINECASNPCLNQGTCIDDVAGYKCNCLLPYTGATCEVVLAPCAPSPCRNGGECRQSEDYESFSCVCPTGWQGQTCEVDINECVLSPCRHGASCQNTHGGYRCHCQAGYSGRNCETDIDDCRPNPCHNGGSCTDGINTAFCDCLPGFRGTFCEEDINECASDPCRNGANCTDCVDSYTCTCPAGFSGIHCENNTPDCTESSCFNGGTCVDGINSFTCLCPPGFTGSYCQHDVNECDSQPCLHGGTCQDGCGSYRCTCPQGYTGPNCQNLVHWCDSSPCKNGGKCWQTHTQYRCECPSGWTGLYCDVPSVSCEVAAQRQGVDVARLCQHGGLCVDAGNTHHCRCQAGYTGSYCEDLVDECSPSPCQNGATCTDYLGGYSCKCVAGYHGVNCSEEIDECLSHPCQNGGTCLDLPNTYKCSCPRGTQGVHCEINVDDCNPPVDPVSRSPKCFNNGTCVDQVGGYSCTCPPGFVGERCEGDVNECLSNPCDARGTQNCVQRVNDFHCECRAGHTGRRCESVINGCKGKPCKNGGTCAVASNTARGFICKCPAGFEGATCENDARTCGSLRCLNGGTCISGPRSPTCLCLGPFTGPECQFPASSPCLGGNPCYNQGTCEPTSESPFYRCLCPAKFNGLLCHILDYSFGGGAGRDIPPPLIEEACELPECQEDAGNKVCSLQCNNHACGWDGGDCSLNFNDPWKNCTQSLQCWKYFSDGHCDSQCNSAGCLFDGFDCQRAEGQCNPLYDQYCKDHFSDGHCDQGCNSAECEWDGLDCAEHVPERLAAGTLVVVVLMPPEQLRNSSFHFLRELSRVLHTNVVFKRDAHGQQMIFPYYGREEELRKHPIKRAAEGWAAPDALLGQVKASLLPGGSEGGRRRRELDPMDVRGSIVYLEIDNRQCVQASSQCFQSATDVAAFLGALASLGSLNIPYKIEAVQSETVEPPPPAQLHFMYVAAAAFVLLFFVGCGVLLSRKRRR
Description: FIG. 37 present data showing Probody with a mask based on the wild-type Notch1-NRR binds Notch1 Receptors in a Cleavage-Dependent Manner. A probody containing the anti-NRR1 scFv was fused to a TEV protease cleavable linker and the wild-type Notch1 NRR. The probodies also contained a HaloTag for labeling with a JFX650 dye. Binding of the probody to Notch1 receptors was tested using uncleaved and TEV protease-cleaved probody. The evaluated cells were based on CHO-K1 celle overexpressing a human Notch1-derived receptor; cells also expressed H2B-mTurq as a fluorescent marker (inset).

T1 sequence (P46531 19-1735, stated change not applied): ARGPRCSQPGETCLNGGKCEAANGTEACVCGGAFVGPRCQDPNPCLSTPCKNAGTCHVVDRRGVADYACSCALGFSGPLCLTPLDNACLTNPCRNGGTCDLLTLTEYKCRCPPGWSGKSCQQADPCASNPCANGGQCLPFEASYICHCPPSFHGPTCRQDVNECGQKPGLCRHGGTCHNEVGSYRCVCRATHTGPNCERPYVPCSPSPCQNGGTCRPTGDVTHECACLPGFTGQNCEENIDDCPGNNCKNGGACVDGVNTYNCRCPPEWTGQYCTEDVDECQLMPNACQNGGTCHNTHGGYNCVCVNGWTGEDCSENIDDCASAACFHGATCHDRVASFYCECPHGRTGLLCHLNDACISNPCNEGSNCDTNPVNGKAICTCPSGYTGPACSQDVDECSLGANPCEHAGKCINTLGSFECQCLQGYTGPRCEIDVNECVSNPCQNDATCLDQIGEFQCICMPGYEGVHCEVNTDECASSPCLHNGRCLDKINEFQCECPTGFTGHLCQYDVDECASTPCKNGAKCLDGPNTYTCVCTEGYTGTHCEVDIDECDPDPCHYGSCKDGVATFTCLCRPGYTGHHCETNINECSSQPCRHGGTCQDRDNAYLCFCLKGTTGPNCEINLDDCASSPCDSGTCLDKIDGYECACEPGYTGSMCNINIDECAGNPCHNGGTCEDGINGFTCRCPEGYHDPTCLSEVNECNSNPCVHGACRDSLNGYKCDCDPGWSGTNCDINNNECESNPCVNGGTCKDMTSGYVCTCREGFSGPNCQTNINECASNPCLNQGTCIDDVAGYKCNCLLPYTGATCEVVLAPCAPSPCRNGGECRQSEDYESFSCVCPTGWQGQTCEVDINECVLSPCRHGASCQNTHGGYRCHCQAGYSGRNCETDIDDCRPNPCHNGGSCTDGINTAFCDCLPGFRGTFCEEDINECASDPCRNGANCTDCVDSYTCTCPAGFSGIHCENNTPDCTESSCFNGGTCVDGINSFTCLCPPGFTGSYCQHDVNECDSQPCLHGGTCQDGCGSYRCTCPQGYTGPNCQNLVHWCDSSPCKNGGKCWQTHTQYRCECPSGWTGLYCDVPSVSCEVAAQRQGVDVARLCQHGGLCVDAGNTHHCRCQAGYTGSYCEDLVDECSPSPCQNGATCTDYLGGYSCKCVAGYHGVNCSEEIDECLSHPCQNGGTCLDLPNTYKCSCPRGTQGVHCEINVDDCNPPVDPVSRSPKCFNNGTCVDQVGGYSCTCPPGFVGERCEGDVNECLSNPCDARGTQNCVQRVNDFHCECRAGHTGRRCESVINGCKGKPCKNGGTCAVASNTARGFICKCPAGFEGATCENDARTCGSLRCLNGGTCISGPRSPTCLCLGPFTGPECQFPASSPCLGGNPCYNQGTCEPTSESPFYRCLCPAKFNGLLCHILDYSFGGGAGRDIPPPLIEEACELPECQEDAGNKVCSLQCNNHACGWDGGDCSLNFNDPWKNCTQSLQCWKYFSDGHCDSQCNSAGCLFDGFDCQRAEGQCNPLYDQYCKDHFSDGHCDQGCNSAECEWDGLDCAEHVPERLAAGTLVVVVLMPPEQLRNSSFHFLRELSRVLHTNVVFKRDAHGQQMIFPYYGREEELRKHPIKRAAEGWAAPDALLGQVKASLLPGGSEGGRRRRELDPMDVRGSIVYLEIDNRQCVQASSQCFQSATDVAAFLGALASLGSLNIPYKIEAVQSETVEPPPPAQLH

- binding result [1]: no binding
B1: TEV-cleavable Anti-Notch1 probody, Genentech scFv, S1 loop deletion (HaloTag-anti-NRR1-scFv-TEVcs-msNRR1^V1677D-deltaS1), intact (uncleaved) (other)
chain: YPYDVPDYATGMAEIGTGFPFDPHYVEVLGERMHYVDVGPRDGTPVLFLHGNPTSSYVWRNIIPHVAPTHRCIAPDLIGMGKSDKPDLGYFFDDHVRFMDAFIEALGLEEVVLVIHDWGSALGFHWAKRNPERVKGIAFMEFIRPIPTWDEWPEFARETFQAFRTTDVGRKLIIDQNVFIEGTLPMGVVRPLTEVEMDHYREPFLNPVDREPLWRFPNELPIAGEPANIVALVEEYMDWLHQSPVPKLLFWGTPGVLIPPAEAARLAKSLPNCKAVDIGPGLNLLQEDNPDLIGSEIARWLSTLEISGGGGGSTGDGGGGEVQLVESGGGLVQPGGSLRLSCAASGFTFSSYWIHWVRQAPGKGLEWVARINPPNRSNQYADSVKGRFTISADTSKNTAYLQMNSLRAEDTAVYYCARGSGFRWVMDYWGQGTLVTVSSGGSSRSSSSGGGGSGGGGDIQMTQSPSSLSASVGDRVTITCRASQDVSTAVAWYQQKPGKAPKLLIYSASFLYSGVPSRFSGSGSGTDFTLTISSLQPEDFATYYCQQFYTTPSTFGQGTKVEIKGSNSGGTLEGGGSGENLYFQGGGGGRTGGGSEQKLISEEDLGGGSILDYSFTGGAGRDIPPPQIEEACELPECQVDAGNKVCNLQCNNHACGWDGGDCSLNFNDPWKNCTQSLQCWKYFSDGHCDSQCNSAGCLFDGFDCQLTEGQCNPLYDQYCKDHFSDGHCDQGCNSAECEWDGLDCAEHVPERLAAGTLVLVVLLPPDQLRNNSFHFLRELSHVLHTNVVFKRDAQGQQMIFPYYGMDIRGSIDYLEIDNRQCVQSSSQCFQSATDVAAFLGALASLGSLNIPYKIEAVKSEPVEGPV
modifications: HaloTag domain conjugated with JFX650 dye
notes: also called Probody^V1667D(ΔS1); Probody^V1667D(ΔS1)-JF650

- binding result [2]: binds
- binding result [3]: binds
- binding result [4]: binds
B2: 'A-2' variant of the anti-NRR1 scFv (mask domain) (scFv)
scFv: EVQLVESGGGLVQPGGSLRLSCAASGFTFSSYWIHWVRQAPGKGLEWVARINPPNRSNQYADSVKGRFTISADTSKNTAYLQMNSLRAEDTAVYYCARGSGFRWVMDYWGQGTLVTVSSGGSSRSSSSGGGGSGGGGDIQMTQSPSSLSASVGDRVTITCRASQDVSTAVAWYQQKPGKAPKLLIYSASFLYSGVPSRFSGSGSGTDFTLTISSLQPEDFATYYCQQFYTTPSTFGQGTKVEIK
notes: Tested as the N-terminal mask domain of receptors HA-Halo-antiNRR-TEVs-NRR-GAL4VP64, that is on the same polypeptide as the NRR until TEVp cleaves the linker; carries HA tag and HaloTag at its N-terminus; also called A2 scFv

- binding result [5]: no binding
B3: TEV-cleavable Anti-Notch1 probody, Genentech scFv, Wild-type NRR (HaloTag-anti-NRR1-scFv-TEVcs-msNRR1^WT), intact (uncleaved) (other)
chain: YPYDVPDYATGMAEIGTGFPFDPHYVEVLGERMHYVDVGPRDGTPVLFLHGNPTSSYVWRNIIPHVAPTHRCIAPDLIGMGKSDKPDLGYFFDDHVRFMDAFIEALGLEEVVLVIHDWGSALGFHWAKRNPERVKGIAFMEFIRPIPTWDEWPEFARETFQAFRTTDVGRKLIIDQNVFIEGTLPMGVVRPLTEVEMDHYREPFLNPVDREPLWRFPNELPIAGEPANIVALVEEYMDWLHQSPVPKLLFWGTPGVLIPPAEAARLAKSLPNCKAVDIGPGLNLLQEDNPDLIGSEIARWLSTLEISGGGGGSTGDGGGGEVQLVESGGGLVQPGGSLRLSCAASGFTFSSYWIHWVRQAPGKGLEWVARINPPNRSNQYADSVKGRFTISADTSKNTAYLQMNSLRAEDTAVYYCARGSGFRWVMDYWGQGTLVTVSSGGSSRSSSSGGGGSGGGGDIQMTQSPSSLSASVGDRVTITCRASQDVSTAVAWYQQKPGKAPKLLIYSASFLYSGVPSRFSGSGSGTDFTLTISSLQPEDFATYYCQQFYTTPSTFGQGTKVEIKGSNSGGTLEGGGSGENLYFQGGGGGRTGGGSEQKLISEEDLGGGSILDYSFTGGAGRDIPPPQIEEACELPECQVDAGNKVCNLQCNNHACGWDGGDCSLNFNDPWKNCTQSLQCWKYFSDGHCDSQCNSAGCLFDGFDCQLTEGQCNPLYDQYCKDHFSDGHCDQGCNSAECEWDGLDCAEHVPERLAAGTLVLVVLLPPDQLRNNSFHFLRELSHVLHTNVVFKRDAQGQQMIFPYYGHEEELRKHPIKRSTVGWATSSLLPGTSGGRQRRELDPMDIRGSIVYLEIDNRQCVQSSSQCFQSATDVAAFLGALASLGSLNIPYKIEAVKSEPVEGPV
modifications: HaloTag labelled with JFX650 dye
notes: also called Probody with a mask based on the wild-type Notch1-NRR

Reference: US20250289885A1 (TRUSTEES OF BOSTON UNIVERSITY, published 2025)
